Data published in paper doi:10.1101/2021.12.19.473342.

Target: BrxR from Escherichia fergusonii ATCC 35469 plasmid pEFER (Escherichia fergusonii ATCC 35469)
Test: SEC

In the case of “BrxR from Escherichia fergusonii ATCC 35469 plasmid pEFER (natural protein)”, the stoichiometry N is reported as 2.
